Source: paper PMC8141872 (The Journal of Biological Chemistry, 2021)

B2: Ras suppressor-1 (Rsu-1), wild type, full length (natural protein, human, UniProt Q15404 1-277, looked up)
chain: MSKSLKKLVEESREKNQPEVDMSDRGISNMLDVNGLFTLSHITQLVLSHNKLTMVPPNIAELKNLEVLNFFNNQIEELPTQISSLQKLKHLNLGMNRLNTLPRGFGSLPALEVLDLTYNNLSENSLPGNFFYLTTLRALYLSDNDFEILPPDIGKLTKLQILSLRDNDLISLPKEIGELTQLKELHIQGNRLTVLPPELGNLDLTGQKQVFKAENNPWVTPIADQFQLGVSHVFEYIRSETYKYLYGRHMQANPEPPKKNNDKSKKISRKPLAAKNR
notes: after thrombin cleavage a few of its residues probably remain (surmised); also called Rsu-1 (WT); Rsu-1 WT; not shown: His6, N-terminal, cleaved

Legend:
Settings in all cases: both partners purified
[1] = molecular target: T1, Kindlin-2 (residues 1-680) (human, UniProt Q96AC1 1-680); assay: SEC; Superose 6 10/300 GL; purified IPP heterotrimer mixed with purified Kindlin-2 and Rsu-1, 4 °C at least 2 h; 20 mM Tris pH 7.5, 150 mM NaCl, 5% glycerol, 0.2 mM TCEP; peak reloaded on the same column
T1 construct: human kindlin-2, residues 1-680; source: SUMO-tag cleaved by Ulp1
T1 sequence (looked up): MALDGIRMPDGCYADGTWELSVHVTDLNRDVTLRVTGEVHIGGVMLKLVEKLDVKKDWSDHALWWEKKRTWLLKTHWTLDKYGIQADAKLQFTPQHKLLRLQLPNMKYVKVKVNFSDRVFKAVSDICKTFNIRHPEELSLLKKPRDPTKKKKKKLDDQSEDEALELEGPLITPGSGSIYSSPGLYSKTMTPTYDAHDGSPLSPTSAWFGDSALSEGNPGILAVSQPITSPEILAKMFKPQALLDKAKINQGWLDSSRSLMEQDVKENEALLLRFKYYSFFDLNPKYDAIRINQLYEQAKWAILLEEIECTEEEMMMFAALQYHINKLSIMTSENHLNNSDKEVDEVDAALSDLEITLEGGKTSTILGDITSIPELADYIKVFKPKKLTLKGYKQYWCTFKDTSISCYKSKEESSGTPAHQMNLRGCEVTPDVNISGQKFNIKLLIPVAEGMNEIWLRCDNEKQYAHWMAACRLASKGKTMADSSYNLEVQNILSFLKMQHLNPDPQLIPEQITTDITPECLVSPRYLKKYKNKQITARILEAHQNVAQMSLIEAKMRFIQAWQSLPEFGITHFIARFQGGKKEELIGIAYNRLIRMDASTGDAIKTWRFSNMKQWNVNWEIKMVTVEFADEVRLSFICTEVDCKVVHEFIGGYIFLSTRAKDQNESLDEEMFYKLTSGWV

[2] = molecular target: T2, PINCH-1 (residues 1-325), as subunit of the IPP complex (human, UniProt P48059 1-325); assay: as above
T2 construct: human PINCH-1, residues 1-325; Stood in the assay within the IPP complex; source: E. coli, co-expressed with ILK and α-parvin, purified as the IPP complex
T2 sequence (P48059 whole entry, the tested form may be a part, one chain of several): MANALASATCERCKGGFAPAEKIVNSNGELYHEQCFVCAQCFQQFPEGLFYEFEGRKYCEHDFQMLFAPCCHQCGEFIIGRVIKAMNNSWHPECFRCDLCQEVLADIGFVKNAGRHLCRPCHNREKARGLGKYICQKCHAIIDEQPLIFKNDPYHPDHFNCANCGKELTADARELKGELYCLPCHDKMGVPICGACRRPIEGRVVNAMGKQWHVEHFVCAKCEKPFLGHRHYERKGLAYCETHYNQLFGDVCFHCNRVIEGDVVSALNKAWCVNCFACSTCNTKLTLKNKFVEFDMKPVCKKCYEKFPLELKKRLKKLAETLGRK

[3] = molecular target: B2; assay: BLI; BLItz; GST-fused PINCH protein or GST (0.05 mg/ml) loaded on anti-GST biosensor, Rsu-1 WT or mutant in the mobile phase; 20 mM Tris pH 7.5, 150 mM NaCl, 1 mg/ml BSA, 0.05% Tween-20; 1:1 global fit; at least three measurements

B1: Integrin-linked kinase (ILK, residues 1-452), as subunit of the IPP complex (natural protein, human, UniProt Q13418 1-452, looked up)
chain: MDDIFTQCREGNAVAVRLWLDNTENDLNQGDDHGFSPLHWACREGRSAVVEMLIMRGARINVMNRGDDTPLHLAASHGHRDIVQKLLQYKADINAVNEHGNVPLHYACFWGQDQVAEDLVANGALVSICNKYGEMPVDKAKAPLRELLRERAEKMGQNLNRIPYKDTFWKGTTRTRPRNGTLNKHSGIDFKQLNFLTKLNENHSGELWKGRWQGNDIVVKVLKVRDWSTRKSRDFNEECPRLRIFSHPNVLPVLGACQSPPAPHPTLITHWMPYGSLYNVLHEGTNFVVDQSQAVKFALDMARGMAFLHTLEPLIPRHALNSRSVMIDEDMTARISMADVKFSFQCPGRMYAPAWVAPEALQKKPEDTNRRSADMWSFAVLLWELVTREVPFADLSNMEIGMKVALEGLRPTIPPGISPHVCKLMKICMNEDPAKRPKFDMIVPILEKMQDK
notes: human integrin-linked kinase (ILK), residues 1-452; Stood in the assay within the IPP complex; source: E. coli, co-expressed with PINCH-1 and α-parvin, purified as the IPP complex
binding result [1]: binds

B2
binding result [2]: binds

B3: GST-fused PINCH-2 LIM5S domain (residues 254-330) (domain or fragment, human, UniProt Q7Z4I7 254-330, looked up)
chain: GDVCYNCSHVIEGDVVSALNKAWCVSCFSCSTCNSKLTLKNKFVEFDMKPVCKRCYEKFPLELKKRLKKLSELTSRK
notes: human PINCH-2 LIM5 domain without the C-terminal 11 residues, residues 254-330; Cloned in pGEX4T1; held on the anti-GST biosensor; also called PINCH-2 LIM5S domain (WT); PINCH-2 LIM5 short domain; source: E. coli Rosetta 2 (DE3), purified (GSTrap)
Kd [3]: 925 ± 194 nM
